We go through 1 protein from patent US20040005554A1 (APPLIED RESEARCH SYSTEMS ARS HOLDING N V, published 2004).

This series concerns the molecule itself. Briefly: SDS-PAGE (silver stain) and anti-FLAG western blot of immunoaffinity-purified protein, with and without reduction.

B1: FLAG-BRP fusion protein (N-terminal FLAG tag on predicted mature human BRP, secreted through the mouse preprotrypsin signal) (other)
chain: DYKDDDDKASSGNLRTFVGCAVREFTFLAKKPGCRGLRITTDACWGRCETWEKPILEPPYIEAHHRVCTYNETKQVTVKLPNCAPGVDPFYTYPVAIRCDCGACSTATTECETI
notes: The BRP part comes from BRP-NTAP (BRP without the secretory signal peptide); also called FLAG-BRP in pCEP4
Take B1: the binding result is recorded as “binds”.
